From patent US20250345446A1 (Draupnir Bio ApS, priority 2022, published 2025)
Read-outs that look alike come from different tables or passages of the source. One block for each molecule: values may come before it. No end group written: not given here. *: point of attachment. Biotin = O=C1N[C@H]2[C@H](CS[C@H]2CCCCC(=O)*)N1

Columns and labels:
[1] = test system: HEK293 cells expressing full length sortilin receptor; assay: Cellular uptake of NA650 in HEK293/sortilin cells; type: cell-based; conditions: for IC50: SEQ ID NO.: 147 (300 nM) and NA650 (100 nM), 3 h incubation, competitor titrated, read-out: IC50 of inhibition of degrader induced internalization of NA650; for AUC score, target internalization: Table 6, NA650 (100 nM), 3 h, biotin warhead compounds
Description: Cellular uptake of NA650 was investigated in HEK293 cells expressing full length sortilin receptor (Petersen et. al.). Cells were seeded in poly-L-lysine coated 96-well plates (Perkin Elmer) (40K/well) in 50 μL culture medium (DMEM (Lonza)+10% FBS (SigmaAldrich)+1% penicillin-streptomycin (SigmaAldrich)+1% GlutaMAX (Gibco)+100 μg/mL Zeocin (Invitrogen)) and incubated overnight in cell incubator (37° C., humidified, 5% CO2).
Culture medium was replaced with assay medium (DMEM (Lonza)+10% fetal bovine serum (SigmaAldrich)+1% penicillin-streptomycin (SigmaAldrich)+1% GlutaMAX (Gibco)) containing NA650 (Invitrogen) (100 nM) (Thermo Fischer) and peptidic bifunctional compounds (9.8 nM to 10 μM). Cells were incubated for 3 h in cell incubator before they were washed in dPBS (Bionordika). The DyLight650 signal in the cell layer was detected using a fluorescence plate reader (BMG Labtech Clariostar).
Cellular uptake of NA650 was investigated in HEK293 cells expressing full length sortilin receptor using a methodology analogous to example 3.

[2] = biological target: T1, soluble ectodomain of sortilin-6his (Homo sapiens, UniProt Q99523, V650M); assay: MST binding to soluble ectodomain of sortilin-6his; conditions: MST, read-out: KD score, binding to sortilin (Kd)
T1 construct: the soluble ectodomain of sortilin-6his is measured by microscale thermophoresis (MST)
T1 sequence (Q99523 with tags, fused parts or gaps V650M): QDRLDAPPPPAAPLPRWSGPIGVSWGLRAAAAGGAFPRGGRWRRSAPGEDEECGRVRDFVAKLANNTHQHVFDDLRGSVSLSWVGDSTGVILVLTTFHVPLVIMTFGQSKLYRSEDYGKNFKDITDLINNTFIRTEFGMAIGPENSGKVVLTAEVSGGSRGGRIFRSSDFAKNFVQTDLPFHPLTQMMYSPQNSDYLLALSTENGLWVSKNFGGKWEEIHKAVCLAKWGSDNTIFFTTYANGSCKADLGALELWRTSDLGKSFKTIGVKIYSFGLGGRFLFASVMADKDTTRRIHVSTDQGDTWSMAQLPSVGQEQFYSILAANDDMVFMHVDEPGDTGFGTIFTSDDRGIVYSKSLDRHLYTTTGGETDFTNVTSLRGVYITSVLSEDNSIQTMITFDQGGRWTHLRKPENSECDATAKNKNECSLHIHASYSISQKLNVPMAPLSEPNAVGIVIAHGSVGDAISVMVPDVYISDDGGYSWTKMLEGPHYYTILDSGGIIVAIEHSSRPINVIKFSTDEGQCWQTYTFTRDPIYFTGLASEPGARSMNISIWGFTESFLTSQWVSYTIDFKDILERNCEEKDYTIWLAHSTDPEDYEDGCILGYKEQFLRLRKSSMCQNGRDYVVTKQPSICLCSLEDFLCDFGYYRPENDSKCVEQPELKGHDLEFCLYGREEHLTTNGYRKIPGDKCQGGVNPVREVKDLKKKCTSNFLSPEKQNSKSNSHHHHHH

Sortilin-6His [3] = biological target: T2, Sortilin-6His (Homo sapiens (Human), UniProt Q99523 78-755); assay: MST on labelled sortilin-6his ectodomain; KD score: +++ <25 nM, ++ 25-250 nM, + 250-2500 nM, 0 >2500 nM
T2 construct: In MST it was labelled non-covalently with RED-tris-NTA; also called soluble ectodomain of sortilin-6his; fluorescent sortilin-6his
T2 sequence (Q99523 78-755 V650M limits assumed): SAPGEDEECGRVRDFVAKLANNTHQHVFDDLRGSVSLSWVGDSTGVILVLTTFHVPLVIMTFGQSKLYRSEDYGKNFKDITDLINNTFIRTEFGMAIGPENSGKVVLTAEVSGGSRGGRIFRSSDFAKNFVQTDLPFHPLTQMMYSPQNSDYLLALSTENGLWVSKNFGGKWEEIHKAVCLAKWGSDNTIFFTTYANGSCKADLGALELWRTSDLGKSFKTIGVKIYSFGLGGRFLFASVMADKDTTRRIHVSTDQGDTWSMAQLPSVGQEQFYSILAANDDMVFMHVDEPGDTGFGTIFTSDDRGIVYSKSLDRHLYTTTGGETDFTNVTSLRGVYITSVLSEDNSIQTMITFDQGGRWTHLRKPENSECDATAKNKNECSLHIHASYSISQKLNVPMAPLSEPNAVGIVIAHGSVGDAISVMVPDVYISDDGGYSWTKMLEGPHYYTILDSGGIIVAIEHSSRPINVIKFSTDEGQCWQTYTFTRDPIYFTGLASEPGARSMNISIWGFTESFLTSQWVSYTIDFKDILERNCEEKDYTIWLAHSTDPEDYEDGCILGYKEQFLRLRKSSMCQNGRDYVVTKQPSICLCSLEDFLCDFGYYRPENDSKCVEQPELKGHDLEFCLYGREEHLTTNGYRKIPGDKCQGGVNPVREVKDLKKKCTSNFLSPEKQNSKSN

Sortilin-6His [4] = biological target: T2, Sortilin-6His; assay: MST on labelled sortilin-6his ectodomain; KD score: ++ <100 nM, + 100-2000 nM
[5] = Table 4, small molecule bifunctional compounds
[6] = Table 3, monofunctional peptides

Molecule: Cc1cccc(NC(=O)c2ccc(C(F)(F)F)cc2C(=O)O)n1 [AF38469, reference compound]
IC50 [1]: 589 nM

Molecule: CC(C)(C)CC[C@H](NC(=O)c1ccc(Oc2cccc(C(=O)NCCOCCOCCOCCOCCOCCOCCOCCOCCNC(=O)CCCC[C@@H]3SC[C@@H]4NC(=O)N[C@@H]43)c2)nc1)C(=O)O [BF018, (2S)-2-[[6-[3-[2-[2-[2-[2-[2-[2-[2-[2-[2-[5-[(3aS,4S,6aR)-2-oxo-1,3,3a,4,6,6a-hexahydrothieno[3,4-d]imidazol-4-yl]pentanoylamino]ethoxy]ethoxy]ethoxy]ethoxy]ethoxy]ethoxy]ethoxy]ethoxy]ethylcarbamoyl]phenoxy]pyridine-3-carbonyl]amino]-5,5-dimethyl-hexanoic acid]
Kd [2, 5]: 1 to 10 nM
AUC score, target internalization [1]: ++ (AUC > 100)

Molecule: CC(C)(C)CC[C@H](NC(=O)c1ccc(Oc2cccc3cc(C(=O)NCCCNC(=O)CCCC[C@@H]4SC[C@@H]5NC(=O)N[C@@H]54)ccc23)nc1)C(=O)O [BF024]
Kd [2, 5]: 10 to 250 nM
AUC score, target internalization [1]: + (AUC < 100)

Molecule: CC(C)(C)CC[C@H](NC(=O)c1ccc(Oc2cccc3c(C(=O)NCCCNC(=O)CCOCCOCCOCCOCCOCCNC(=O)CCCC[C@@H]4SC[C@@H]5NC(=O)N[C@@H]54)cccc23)nc1)C(=O)O [BF028, (2S)-2-[[6-[[5-[3-[3-[2-[2-[2-[2-[2-[5-[(3aS,4S,6aR)-2-oxo-1,3,3a,4,6,6a-hexahydrothieno[3,4-d]imidazol-4-yl]pentanoylamino]ethoxy]ethoxy]ethoxy]ethoxy]ethoxy]propanoylamino]propylcarbamoyl]-1-naphthyl]oxy]pyridine-3-carbonyl]amino]-5,5-dimethyl-hexanoic acid]
Kd [2, 5]: 10 to 250 nM
AUC score, target internalization [1]: ++ (AUC > 100)

Molecule: O=C(O)CCCC[C@@H]1SC[C@@H]2NC(=O)N[C@@H]21 [biotin, reference compound]
IC50 ([1]; Homo sapiens, HEK293): 56 nM

Molecule: REALRWDAPLRDPAPRQLL-OH [compound 54]
Kd [2, 6]: < 25 nM

Molecule: REAPRWDAPLRDPALFQLL-OH [compound 58]
Kd [2, 6]: < 25 nM

Molecule: REAPRWDAPLRDPALRYLL-OH [compound 59]
Kd [2, 6]: < 25 nM

Molecule: TGGFM-OH [compound 62]
Kd [2, 6]: > 2500 nM

B2: Biotin-RQLL-OH (peptide)
peptide: Biotin-RQLL-OH
SMILES: CC(C)C[C@H](NC(=O)[C@H](CC(C)C)NC(=O)[C@H](CCC(N)=O)NC(=O)[C@H](CCCNC(=N)N)NC(=O)CCCC[C@@H]1SC[C@@H]2NC(=O)N[C@@H]21)C(=O)O
KD (Sortilin-6His [4]): < 100 nM

B4: IQLL (peptide)
peptide: IQLL
KD (Sortilin-6His [3]): 250 to 2500 nM

B7: H-RYYL-OH (peptide)
peptide: H-RYYL-OH
KD (Sortilin-6His [3]): 25 to 250 nM

B10: H-RYFL-OH (peptide)
peptide: H-RYFL-OH
KD (Sortilin-6His [3]): 250 to 2500 nM

B12: H-PYIL-OH (peptide)
peptide: H-PYIL-OH
KD (Sortilin-6His [3]): 25 to 250 nM

B13: H-PYLL-OH (peptide)
peptide: H-PYLL-OH
KD (Sortilin-6His [3]): 250 to 2500 nM

B15: REAPRWDAPLRDPALRQLL (peptide)
peptide: REAPRWDAPLRDPALRQLL
KD (Sortilin-6His [3]): < 25 nM

B16: REAPRWDAPLRDPALRYYL (peptide)
peptide: REAPRWDAPLRDPALRYYL
KD (Sortilin-6His [3]): 25 to 250 nM

B21: GGSGGGGSGGGGSGGRQLL-OH (peptide)
peptide: GGSGGGGSGGGGSGGRQLL-OH
KD (Sortilin-6His [3]): 25 to 250 nM

B22: Biotin-GGSGGGGFQLL-OH (peptide)
peptide: Biotin-GGSGGGGFQLL-OH
SMILES: CC(C)C[C@H](NC(=O)[C@H](CC(C)C)NC(=O)[C@H](CCC(N)=O)NC(=O)[C@H](Cc1ccccc1)NC(=O)CNC(=O)CNC(=O)CNC(=O)CNC(=O)[C@H](CO)NC(=O)CNC(=O)CNC(=O)CCCC[C@@H]1SC[C@@H]2NC(=O)N[C@@H]21)C(=O)O
KD (Sortilin-6His [4]): < 100 nM

B27: WSGPIGVSWGLRAAAAGFQLL-OH (peptide)
peptide: WSGPIGVSWGLRAAAAGFQLL-OH
KD (Sortilin-6His [3]): < 25 nM

Now from value to molecule, other results behind:

Kd [2, 5]: 10 to 250 nM
Molecule: CC(C)(C)CC[C@H](NC(=O)c1ccc(Oc2cccc(OCCOCCOCCNC(=O)CCCC[C@@H]3SC[C@@H]4NC(=O)N[C@@H]43)c2)nc1)C(=O)O [BF022, (S)-5,5-dimethyl-2-(6-(3-(2-(2-(2-(5-((3aS,4S,6aR)-2-oxohexahydro-1H-thieno[3,4-d]imidazol-4-yl)pentanamido)ethoxy)ethoxy)ethoxy)phenoxy)nicotinamido) hexanoic acid]
AUC score, target internalization [1]: + (AUC < 100)

Kd [2, 6]: > 2500 nM
Molecule: LYENK-NH2 [compound 65]

Kd [2, 6]: > 2500 nM
Molecule: PIPLV [compound 197, PIPLV-OH]

Kd [2, 6]: 25 to 250 nM
Molecule: REAPRWDAPLRDPALRYYL-OH [compound 61]

KD (Sortilin-6His [3]): 25 to 250 nM
B1: APLRDPAPRQLL (peptide)
peptide: APLRDPAPRQLL

KD (Sortilin-6His [3]): 250 to 2500 nM
B3: H-RYIL-OH (peptide)
peptide: H-RYIL-OH

KD (Sortilin-6His [3]): 250 to 2500 nM
B5: H-RQFL-OH (peptide)
peptide: H-RQFL-OH

KD (Sortilin-6His [3]): 25 to 250 nM
B6: H-PQLL-OH (peptide)
peptide: H-PQLL-OH

KD (Sortilin-6His [3]): 250 to 2500 nM
B8: H-FYIL-OH (peptide)
peptide: H-FYIL-OH

KD (Sortilin-6His [3]): 250 to 2500 nM
B9: LQLL (peptide)
peptide: LQLL

KD (Sortilin-6His [3]): 25 to 250 nM
B11: H-KQLL-OH (peptide)
peptide: H-KQLL-OH

KD (Sortilin-6His [3]): 250 to 2500 nM
B14: H-RQYL-OH (peptide)
peptide: H-RQYL-OH

KD (Sortilin-6His [3]): < 25 nM
B17: REAPRWDAPLRDPALFQLL (peptide)
peptide: REAPRWDAPLRDPALFQLL

KD (Sortilin-6His [3]): < 25 nM
B18: REAPRWDAPLRDPALRYLL (peptide)
peptide: REAPRWDAPLRDPALRYLL

KD (Sortilin-6His [4]): < 100 nM
B19: Biotin-GGRQLL-OH (peptide)
peptide: Biotin-GGRQLL-OH
SMILES: CC(C)C[C@H](NC(=O)[C@H](CC(C)C)NC(=O)[C@H](CCC(N)=O)NC(=O)[C@H](CCCNC(=N)N)NC(=O)CNC(=O)CNC(=O)CCCC[C@@H]1SC[C@@H]2NC(=O)N[C@@H]21)C(=O)O

KD (Sortilin-6His [3]): < 25 nM
B20: REALRWDAPLRDPAPRQLL (peptide)
peptide: REALRWDAPLRDPAPRQLL

KD (Sortilin-6His [4]): < 100 nM
B23: Biotin-GGSGGGGRQLL-OH (peptide)
peptide: Biotin-GGSGGGGRQLL-OH
SMILES: CC(C)C[C@H](NC(=O)[C@H](CC(C)C)NC(=O)[C@H](CCC(N)=O)NC(=O)[C@H](CCCNC(=N)N)NC(=O)CNC(=O)CNC(=O)CNC(=O)CNC(=O)[C@H](CO)NC(=O)CNC(=O)CNC(=O)CCCC[C@@H]1SC[C@@H]2NC(=O)N[C@@H]21)C(=O)O

KD (Sortilin-6His [4]): < 100 nM
B24: Biotin-GGSGGFQLL-OH (peptide)
peptide: Biotin-GGSGGFQLL-OH
SMILES: CC(C)C[C@H](NC(=O)[C@H](CC(C)C)NC(=O)[C@H](CCC(N)=O)NC(=O)[C@H](Cc1ccccc1)NC(=O)CNC(=O)CNC(=O)[C@H](CO)NC(=O)CNC(=O)CNC(=O)CCCC[C@@H]1SC[C@@H]2NC(=O)N[C@@H]21)C(=O)O

KD (Sortilin-6His [3]): 25 to 250 nM
B25: LYENKPRRPYIL (peptide)
peptide: LYENKPRRPYIL

KD (Sortilin-6His [4]): 100 to 2000 nM
B26: Biotin-GGSRQLL-OH (peptide)
peptide: Biotin-GGSRQLL-OH
SMILES: CC(C)C[C@H](NC(=O)[C@H](CC(C)C)NC(=O)[C@H](CCC(N)=O)NC(=O)[C@H](CCCNC(=N)N)NC(=O)[C@H](CO)NC(=O)CNC(=O)CNC(=O)CCCC[C@@H]1SC[C@@H]2NC(=O)N[C@@H]21)C(=O)O

KD (Sortilin-6His [3]): < 25 nM
B28: PYILKRQLYENKPRRPYIL (peptide)
peptide: PYILKRQLYENKPRRPYIL
